The values that follow are results of earlier work, collected in US8071839B2, “Transgenic mouse comprising a polynucleotide encoding human or humanized C5aR and methods of production and use” (G2 Inflammation Pty Ltd, priority 2003, dated 2011).

For data set [1], the target named is T1, C5aR (Homo sapiens, UniProt P21730).
T1 sequence (P21730 1-350): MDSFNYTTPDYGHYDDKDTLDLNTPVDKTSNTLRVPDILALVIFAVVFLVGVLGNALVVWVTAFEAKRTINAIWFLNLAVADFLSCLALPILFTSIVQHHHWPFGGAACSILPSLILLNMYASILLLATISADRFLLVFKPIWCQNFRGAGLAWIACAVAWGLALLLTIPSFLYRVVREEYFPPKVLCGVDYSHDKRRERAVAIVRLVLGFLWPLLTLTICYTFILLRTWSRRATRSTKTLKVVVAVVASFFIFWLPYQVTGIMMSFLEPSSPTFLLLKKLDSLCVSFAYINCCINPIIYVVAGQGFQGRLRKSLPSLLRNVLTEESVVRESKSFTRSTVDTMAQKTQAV
The note with it: read-out: Kd of C5aR for C5a.

In data set [2] the target is T1, C5aR.

B1: C5a: anaphylatoxin fragment of complement protein C5, natural ligand of C5aR (protein, UniProt P01031 678-751, looked up)
C5a anaphylatoxin: TLQKKIEEIAAKYKHSVVKKCCYDGACVNNDETCEQRAARISLGPRCIKAFTECCVVASQLRANISHKDMQLGR
modifications: C5a anaphylatoxin
notes: anaphylatoxin fragment of complement protein C5, natural ligand of C5aR
With B1, the Kd in data set [1] was around 1 nM.

B2: murine C5a: mouse C5a, ligand that binds human C5aR (protein, UniProt P06684 679-755, looked up)
C5a anaphylatoxin: NLHLLRQKIEEQAAKYKHSVPKKCCYDGARVNFYETCEERVARVTIGPLCIRAFNECCTIANKIRKESPHKPVQLGR
modifications: C5a anaphylatoxin
As to B2, in data set [2], the “binding affinity for human C5aR” value is “high affinity”.

As usually defined, the Kd is a measure of binding affinity in units of concentration.
